The target of assay [1] is recombinant His-tagged human CK1ε (Homo sapiens, UniProt P49674). Nature of the assay: Fluorescence anisotropy (FA) binding of FITC-labeled peptides. As to conditions: FITC-Ahx peptide 50 nM, 30 min, 37 °C; n=3; read-out: affinity for recombinant CK1ε (fluorescence anisotropy). The text has this:
The peptides used in the fluorescent polarization (FA) binding assays were synthesized at Pepscan B.V. (Lelystad, Netherlands). The sequences of these peptides (indicated in Supplementary Fig. 4a) were amidated at their C-termini, and their N-termini were acylated with 6-aminocaproic acid (Ahx) modified with fluorescein isothiocyanate (FITC). The peptides used in the NMR/SPR studies were purchased from KareBay Biochem, Inc. (New Jersey, USA). The peptides for the NMR/SPR studies contained no terminal modifications.
Data were recorded at 37 °C using Tecan Infinite F500 (Tecan Systems, Germany). FITC-labeled peptides were dissolved in DMSO and added to 384-well plates (Corning) to a total volume of 20 μl (peptide final concentration was 50 nM). Incubation with recombinant His-tagged human CK1ε (MyBioSource, #MBS964562) was performed for 30 min at 37 °C. Then, fluorescence intensities were collected simultaneously by detection at 535/590 and 485/535 nm excitation/emission wavelengths, respectively, followed by adjustment to the blank controls.
On the technique in general: Fluorescence polarisation rises when a labelled molecule tumbles more slowly, as on binding a larger partner.

Assay [2] deals with FITC-labeled peptide corresponding to the DVL3 FRMA region, non-phosphorylated (fluorescence anisotropy) (human). Description: fluorescence polarisation; fluorescence anisotropy, 50 nM FITC-labeled peptide with recombinant His-tagged human CK1ε, 30 min at 37 °C, 384-well plates.
In assay [3] the target is FITC-labeled peptide corresponding to the DVL3 RGCF region, non-phosphorylated (fluorescence anisotropy) (human). Described as above.
For assay [4], the target named is FITC-labeled peptide corresponding to the DVL3 RGPR region, non-phosphorylated (fluorescence anisotropy) (human). The assay is described as above.
A further assay relates to Xenopus laevis embryos. Description: Convergent extension (CE) / neural tube defects in Xenopus embryos (Wnt/PCP readout). In kind it is in vivo. The conditions noted are these: Dorsal injection, 100pg/embryo. The text has this:
In the cell culture model we were unable to dissect the effects on the non-canonical Wnt/PCP pathway, and as such we turned into the Xenopus embryo model. Alterations in the Wnt/PCP pathway activity result in the convergent extension (CE) defects (Supplementary Fig. 7b, right). In order to avoid any artifacts, we tested the constitutively open and closed variants of xDvl3 based on point mutations or small deletions—namely open xDvl3 ΔC and xDvl3 (S267E/S310E) and closedxDvl3 (S267A/S310A). Phosphorylation sites in the PDZ domain are fully conserved between human and Xenopus (for alignment see Supplementary Fig. 5a) and hDVL3 S268/S311 corresponds to xDvl3 S267/S310.
The work with Xenopus laevis was carried out according to the German animal use and care law (Das Tierschutzgesetz) and approved by the local authorities and committees (animal care and housing approval: I/39/EE006, Veterinäramt Erlangen; animal experiments approval: 54-2532.2-8/08, German state administration Bavaria/Regierung von Mittelfranken). The generation and cultivation of Xenopus embryos was done in accordance with general protocols and staged after the normal table of Niewkoop and Faber (1994)[53].
RNA for microinjection was synthesized from plasmids pCS2 myc-xDvl3 (ref. [54]), pCS2 myc-xDvl3 ΔALL (lacking sequence corresponding to aa 338–350, 609–619, and 693–705 in xDvl3), pCS2 xDvl3 (S267A/S310A), pCS2 xDvl3 (S267E/S310E), pCS2 xDvl3 ΔC, and pCS2 xCK1ε[55], respectively, using the mMessage mMachine Kit (Ambion). Embryos were injected at the four-cell stage either into the two ventral blastomeres for testing the constructs' ability to induce a secondary body axis. Injection amounts of synthetic RNA were 500 pg for myc-xDvl3 wild type and the myc-xDvl3 ∆ALL variant, and 150 pg for xCK1ε RNA. For the analysis of morphogenetic defects, four-cell stage embryos were injected into the two dorsal blastomeres with 100 pg myc-xDvl3 RNA and the corresponding variant RNAs. After injection, the embryos were cultivated until they reached stage 26, fixed, and analyzed for axis duplication or morphogenetic defects, respectively.

In assay [5] the target is T1, PDZ domain of human DVL2 wild type (aa 265–361) (human, UniProt O14641 265-361).
T1 chain: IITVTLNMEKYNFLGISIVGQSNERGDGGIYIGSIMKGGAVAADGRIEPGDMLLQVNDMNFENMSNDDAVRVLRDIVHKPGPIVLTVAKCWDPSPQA
Description: NMR.

Assay [6] addresses T2, PDZ domain of human DVL2 (aa 265–361), phosphorylation-mimicking variant S286E + S329E (human, UniProt O14641 265-361, S286E | S329E).
T2 sequence: T1 chain with S22E, S65E
Nature of the assay: NMR.

Assay [7] deals with T3, PDZ domain of human DVL2 wild type (aa 265–361) (human, UniProt O14641 265-361).
T3 construct: Dishevelled-2, human, PDZ domain aa 265-361; 15N-labeled (13C/15N for assignment) for NMR; S286 and S329 correspond to S268 and S311 of human DVL3; also called DVL2 PDZ wild type; PDZ wt; source: E. coli BL21 (DE3), purified (Ni-NTA, TEV cleavage, ion exchange, size exclusion); not shown: His6, N-terminal, cleaved; lipoyl domain, N-terminal, cleaved
T3 sequence (looked up): T1 chain
Description: SPR; Biacore T200, PDZ immobilized on CM5 chip by amino coupling, peptide injected at increasing concentrations to steady state; one-site equilibrium fit, apparent KD. The conditions noted are these: both partners purified.

In assay [8] the target is T4, PDZ domain of human DVL2 (aa 265–361), phosphorylation-mimicking variant S286E + S329E (human, UniProt O14641 265-361, S286E | S329E).
T4 construct: Dishevelled-2, human, PDZ domain aa 265-361 with S286E and S329E; 15N-labeled for NMR; also called S286E/S329E PDZ; PDZ phosphomimicking variant; source: E. coli BL21 (DE3), purified (Ni-NTA, TEV cleavage, ion exchange, size exclusion); not shown: His6, N-terminal, cleaved; lipoyl domain, N-terminal, cleaved
T4 sequence (looked up): T1 chain with S22E, S65E
The assay is described as above. As to conditions: both partners purified.

Assay [9] addresses T4, PDZ domain of human DVL2 (aa 265–361), …. Nature of the assay: NMR titration; 1H,15N HSQC series, 100 μM 15N-labeled PDZ with increasing amounts of peptide; 20 mM HEPES pH 6.8, 50 mM KCl; apparent KD from three fast-exchange cross-peaks. As to conditions: both partners purified.

Where a chain is given by its changes, count along the chain named. Where a SMILES comes first, the peptide text is derived from it. [ ]: non-standard residue; d: D form. The star is where a group is joined. FITC = O=C1OC2(c3ccc(O)cc3Oc3cc(O)ccc32)c2ccc(NC(=S)*)cc21; pS = N[C@@H](COP(=O)(O)O)C(=O)O; Ahx = NCCCCCC(=O)O

recombinant His-tagged human CK1ε, sequence (P49674 whole entry): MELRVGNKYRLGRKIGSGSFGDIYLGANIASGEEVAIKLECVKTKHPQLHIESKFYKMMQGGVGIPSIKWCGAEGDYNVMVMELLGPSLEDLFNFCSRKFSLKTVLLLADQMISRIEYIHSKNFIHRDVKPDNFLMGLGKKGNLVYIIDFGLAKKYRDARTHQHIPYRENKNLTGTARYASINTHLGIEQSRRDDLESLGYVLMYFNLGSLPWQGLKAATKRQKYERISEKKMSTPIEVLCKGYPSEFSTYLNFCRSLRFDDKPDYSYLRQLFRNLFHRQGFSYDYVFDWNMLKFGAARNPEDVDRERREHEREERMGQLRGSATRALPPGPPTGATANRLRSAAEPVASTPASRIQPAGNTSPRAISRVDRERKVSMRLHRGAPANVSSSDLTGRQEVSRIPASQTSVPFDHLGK

Turning to `CC(C)C[C@H](NC(=O)[C@@H](NC(=O)[C@H](Cc1ccccc1)NC(=O)[C@H](CS)NC(=O)CNC(=O)[C@H](CCCNC(=N)N)NC(=O)[C@@H]1CCCN1C(=O)[C@H](CO)NC(=O)[C@@H]1CCCN1C(=O)CCCCCNC(=S)Nc1ccc2c(c1)C(=O)OC21c2ccc(O)cc2Oc2cc(O)ccc21)[C@@H](C)O)C(=O)N1CCC[C@H]1C(=O)N[C@@H](CCCNC(=N)N)C(=O)N[C@@H](CO)C(=O)N[C@@H](CCC(=O)O)C(N)=O` [RGCF] ({FITC-Ahx}-PSPRGCFTLPRSE-NH2), the Kd in assay [1] was ~1 µM.

As to `CSCC[C@H](NC(=O)[C@H](C)NC(=O)[C@H](CCSC)NC(=O)[C@H](CCCNC(=N)N)NC(=O)[C@H](Cc1ccccc1)NC(=O)[C@H](CO)NC(=O)[C@H](CCC(N)=O)NC(=O)[C@H](CCCNC(=N)N)NC(=O)CCCCCNC(=S)Nc1ccc2c(c1)C(=O)OC21c2ccc(O)cc2Oc2cc(O)ccc21)C(=O)NCC(=O)N[C@@H](CC(N)=O)C(N)=O` [FRMA] ({FITC-Ahx}-RQSFRMAMGN-NH2), the Kd in [1] is ~1 µM.

Take `CC(C)C[C@H](NC(=O)[C@H](CO)NC(=O)[C@H](CO)NC(=O)CCCCCNC(=S)Nc1ccc2c(c1)C(=O)OC21c2ccc(O)cc2Oc2cc(O)ccc21)C(=O)N[C@@H](CCCNC(=N)N)C(=O)NCC(=O)N1CCC[C@H]1C(=O)N[C@@H](CCCNC(=N)N)C(=O)N[C@@H](CCC(=O)O)C(=O)N[C@@H](CCCNC(=N)N)C(=O)N[C@@H](C)C(=O)N1CCC[C@H]1C(=O)N[C@@H](CO)C(=O)N[C@@H](CCC(=O)O)C(N)=O` [RGPR] ({FITC-Ahx}-SSLRGPRERAPSE-NH2): the Kd in assay [1] is ~1 µM.

With “recombinant His-tagged human CK1ε (MyBioSource, #MBS964562) (from UniProt P49674 1-416) (enzyme)”, the Kd in [2], in assay [3] and in [4] was 1 µM throughout.

B1: WT-Dvl3 (protein, UniProt Q92997 1-716, looked up)
Segment polarity protein …: MGETKIIYHLDGQETPYLVKLPLPAERVTLADFKGVLQRPSYKFFFKSMDDDFGVVKEEISDDNAKLPCFNGRVVSWLVSAEGSHPDPAPFCADNPSELPPPMERTGGIGDSRPPSFHPHAGGGSQENLDNDTETDSLVSAQRERPRRRDGPEHATRLNGTAKGERRREPGGYDSSSTLMSSELETTSFFDSDEDDSTSRFSSSTEQSSASRLMRRHKRRRRKQKVSRIERSSSFSSITDSTMSLNIITVTLNMEKYNFLGISIVGQSNERGDGGIYIGSIMKGGAVAADGRIEPGDMLLQVNEINFENMSNDDAVRVLREIVHKPGPITLTVAKCWDPSPRGCFTLPRSEPIRPIDPAAWVSHTAAMTGTFPAYGMSPSLSTITSTSSSITSSIPDTERLDDFHLSIHSDMAAIVKAMASPESGLEVRDRMWLKITIPNAFIGSDVVDWLYHNVEGFTDRREARKYASNLLKAGFIRHTVNKITFSEQCYYIFGDLCGNMANLSLHDHDGSSGASDQDTLAPLPHPGAAPWPMAFPYQYPPPPHPYNPHPGFPELGYSYGGGSASSQHSEGSRSSGSNRSGSDRRKEKDPKAGDSKSGGSGSESDHTTRSSLRGPRERAPSERSGPAASEHSHRSHHSLASSLRSHHTHPSYGPPGVPPLYGPPMLMMPPPPAAMGPPGAPPGRDLASVPPELTASRQSFRMAMGNPSEFFVDVM
Consider B1, for which the “open neural tube (number of embryos)” value was found to be 3 in the assay with Xenopus laevis embryos (1. Injection), 1 in the assay with Xenopus laevis embryos (2. Injection) and 0 with Xenopus laevis embryos (3. Injection). The “shortened AP axis (number of embryos)” value with Xenopus laevis embryos (2. Injection) and with Xenopus laevis embryos (3. Injection) was 0 in each case. Moreover, the “open NT (number of embryos)” value in the assay on Xenopus laevis embryos (Graph: sum of injections 1-3) stood at 4.

B2: phosphorylated (pS700) C-terminal peptide derived from DVL3 (aa 698–716) (peptide, UniProt Q92997 698-716, looked up)
peptide: H-RQ[pS]FRMAMGNPSEFFVDVM-OH
notes: Dishevelled-3, human, C-terminal aa 698-716; the last seven residues are printed as EFFVDIM; also called DVL C-terminal peptide; C-terminal DVL peptide (pS700); source: synthetic peptide, bought: KareBay Biochem
Consider B2, for which the Kd was found to be 296 µM in assay [5] and 625 µM in assay [6]. The binding result in [7] is given as “binds”. Besides, the “fold lower affinity than PDZ wt” value in assay [8] turned out to be 2 fold. For the same molecule, the “fold weaker affinity than PDZ wt” value in [9] amounted to 2 fold.

Values taken from paper PMC6472409, “Dishevelled-3 conformation dynamics analyzed by FRET-based biosensors reveals a key role of casein kinase 1” (Nature Communications, 2019).
